Assay in all cases: SPR
A general note: In SPR one partner is held on a chip, and binding of the other changes the refractive index at the surface.

The target of assay [1] is Human haptoglobin (from pooled human plasma, a mixture of 1-1, 2-1, and 2-2 phenotype) (human) (UniProt P00738).
Assay [2] deals with T1, Recombinant human CD163 protein (human, UniProt Q86VB7-1 42-1050).
The target in assay [3] is T1, Recombinant human CD163 protein. The source holds these as a separate data set.

The Kd is the concentration at which binding is half-saturated.

Like-named read-outs stand apart in the source and are kept apart here. Where only a bound is given, the exact number is not on record here.

T1 sequence (Q86VB7 42-1050): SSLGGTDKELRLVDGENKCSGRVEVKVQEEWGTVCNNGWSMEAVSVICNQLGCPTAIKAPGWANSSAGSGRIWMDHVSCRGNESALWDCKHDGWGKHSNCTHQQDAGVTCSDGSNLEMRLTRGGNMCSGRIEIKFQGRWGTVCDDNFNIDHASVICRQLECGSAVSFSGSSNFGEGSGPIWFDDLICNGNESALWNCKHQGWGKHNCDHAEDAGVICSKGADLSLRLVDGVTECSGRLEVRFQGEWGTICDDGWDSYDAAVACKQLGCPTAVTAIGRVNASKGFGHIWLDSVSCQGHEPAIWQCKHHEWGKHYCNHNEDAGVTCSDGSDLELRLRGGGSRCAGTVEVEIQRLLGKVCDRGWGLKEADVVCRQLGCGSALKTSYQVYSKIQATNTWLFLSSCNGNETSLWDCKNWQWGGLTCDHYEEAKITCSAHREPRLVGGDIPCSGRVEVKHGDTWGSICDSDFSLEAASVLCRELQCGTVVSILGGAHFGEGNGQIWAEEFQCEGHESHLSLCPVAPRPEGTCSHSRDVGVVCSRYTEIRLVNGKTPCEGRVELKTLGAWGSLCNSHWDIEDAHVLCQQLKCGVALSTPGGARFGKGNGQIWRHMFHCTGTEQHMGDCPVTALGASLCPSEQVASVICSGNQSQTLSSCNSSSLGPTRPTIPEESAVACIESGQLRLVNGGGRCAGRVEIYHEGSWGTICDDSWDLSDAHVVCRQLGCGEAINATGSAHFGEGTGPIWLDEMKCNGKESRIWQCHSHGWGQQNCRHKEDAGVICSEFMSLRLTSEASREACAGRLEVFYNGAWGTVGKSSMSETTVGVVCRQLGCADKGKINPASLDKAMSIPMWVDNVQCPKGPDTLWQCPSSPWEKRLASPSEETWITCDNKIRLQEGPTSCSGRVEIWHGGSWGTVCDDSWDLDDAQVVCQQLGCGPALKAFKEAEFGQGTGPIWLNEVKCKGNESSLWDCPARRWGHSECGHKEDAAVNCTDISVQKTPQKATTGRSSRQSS

In the case of “Recombinant HMGB1 (redox form not stated for the experiment) (from UniProt P09429 1-215) (natural protein)”, the equilibrium dissociation constant (Kd) in assay [1] stood at 64 nM.

B1: HMGB1 and haptoglobin complexes (1:1 molar ratio) (complex)
chain 1: GKGDPKKPRGKMSSYAFFVQTCREEHKKKHPDASVNFSEFSKKCSERWKTMSAKEKGKFEDMAKADKARYEREMKTYIPPKGETKKKFKDPNAPKRPPSAFFLFCSEYRPKIKGEHPGLSIGDVAKKLGEMWNNTAADDKQPYEKKAAKLKEKYEKDIAAYRAKGKPDAAKKGVVKAEKSKKKKEEEDDEEDEEDEEEEEEEEDEDEEEDDDDE
chain 2: VDSGNDVTDIADDGCPKPPEIAHGYVEHSVRYQCKNYYKLRTEGDGVYTLNDKKQWINKAVGDKLPECEADDGCPKPPEIAHGYVEHSVRYQCKNYYKLRTEGDGVYTLNNEKQWINKAVGDKLPECEAVCGKPKNPANPVQ
chain 3: ILGGHLDAKGSFPWQAKMVSHHNLTTGATLINEQWLLTTAKNLFLNHSENATAKDIAPTLTLYVGKKQLVEIEKVVLHPNYSQVDIGLIKLKQKVSVNERVMPICLPSKDYAEVGRVGYVSGWGRNANFKFTDHLKYVMLPVADQDQCIRHYEGSTVPEKKTPKSPVGVQPILNEHTFCAGMSKYQEDTCYGDAGSAFAVHDLEEDTWYATGILSFDKSCAVAEYGVYVKVTSIQDWVQKTIAEN
For B1, the Kd in assay [2] stood at 130 nM.

B2: Recombinant HMGB1 (redox form not stated for the experiment) (natural protein, human, UniProt P09429 1-215, looked up)
chain: MGKGDPKKPRGKMSSYAFFVQTCREEHKKKHPDASVNFSEFSKKCSERWKTMSAKEKGKFEDMAKADKARYEREMKTYIPPKGETKKKFKDPNAPKRPPSAFFLFCSEYRPKIKGEHPGLSIGDVAKKLGEMWNNTAADDKQPYEKKAAKLKEKYEKDIAAYRAKGKPDAAKKGVVKAEKSKKKKEEEEDEEDEEDEEEEEDEEDEDEEEDDDDE
Take B2: the equilibrium dissociation constant (Kd) in assay [3] is above 1000 nM.
